Results from patent US6869925 (Amgen, dated 2005).

Assays:
[1] = target: SLPI binding sites on HuT78 cells (human T cell line) (human); assay: 125I-SLPI saturation binding, intact HuT78 cells, *SLPI at 160 pM
[2] = target: SLPI binding sites on HuT78 cells (human T cell line) (human); assay: 125I-SLPI saturation binding, intact HuT78 cells, *SLPI at 640 pM
[3] = target: SLPI binding sites on U937 cells (human monocyte cell line; intact cells, PMA-induced cells or plasma membranes) (human); assay: 125I-SLPI saturation binding, U937 cells plus PMA, *SLPI at 80 pM
[4] = target: SLPI binding sites on U937 cells (human monocyte cell line; intact cells, PMA-induced cells or plasma membranes) (human); assay: competition with 125I-SLPI, intact U937 cells, cold SLPI at 84 nM
[5] = target: SLPI binding sites on HuT78 cells (human T cell line) (human); assay: 125I-SLPI saturation binding, intact HuT78 cells, *SLPI at 2560 pM
[6] = target: SLPI binding sites on U937 cells (human monocyte cell line; intact cells, PMA-induced cells or plasma membranes) (human); assay: competition with 125I-SLPI, intact U937 cells, cold SLPI at 270 nM
[7] = target: SLPI binding sites on U937 cells (human monocyte cell line; intact cells, PMA-induced cells or plasma membranes) (human); assay: 125I-SLPI saturation binding, U937 cells minus PMA, *SLPI at 640 pM
[8] = target: SLPI binding sites on HuT78 cells (human T cell line) (human); assay: competition with 125I-SLPI, intact HuT78 cells, competitor at 84 nM
[9] = target: SLPI binding sites on U937 cells (human monocyte cell line; intact cells, PMA-induced cells or plasma membranes) (human); assay: 125I-SLPI saturation binding, U937 cells minus PMA, *SLPI at 5120 pM
[10] = target: SLPI binding sites on U937 cells (human monocyte cell line; intact cells, PMA-induced cells or plasma membranes) (human); assay: 125I-SLPI saturation binding, U937 cells plus PMA, *SLPI at 2,560 pM
[11] = target: SLPI binding sites on U937 cells (human monocyte cell line; intact cells, PMA-induced cells or plasma membranes) (human); assay: competition with 125I-SLPI, intact U937 cells, cold SLPI at 0.078 nM
[12] = target: SLPI binding sites on U937 cells (human monocyte cell line; intact cells, PMA-induced cells or plasma membranes) (human); assay: competition with 125I-SLPI, intact U937 cells, competitor at 2750 nM
[13] = target: SLPI binding sites on HuT78 cells (human T cell line) (human); assay: competition with 125I-SLPI, intact HuT78 cells, competitor at 8.2 nM
[14] = target: SLPI binding sites on HuT78 cells (human T cell line) (human); assay: competition with 125I-SLPI, intact HuT78 cells, competitor at 2750 nM

serine leukocyte protease inhibitor (SLPI), sequence (P03973 26-132): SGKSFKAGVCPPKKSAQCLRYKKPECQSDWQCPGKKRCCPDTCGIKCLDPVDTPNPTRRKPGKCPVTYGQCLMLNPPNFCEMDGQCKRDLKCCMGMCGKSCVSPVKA

serine leukocyte protease inhibitor (SLPI) (from UniProt P03973 26-132)
bound pM [1]: 0.93 pM
bound per free [1]: 0.0058
sites bound per cell (sites per cell) [1]: 56
specific cpm [1]: 37 cpm
bound pM [2]: 2.53 pM
bound per free [2]: 0.0039
sites bound per cell (sites per cell) [2]: 152
specific cpm [2]: 101 cpm
bound pM [3]: 32 pM
bound per free [3]: 0.67
sites bound per cell (sites per cell) [3]: 1910
specific cpm [3]: 339 cpm
% *SLPI BOUND [4]: 3.5%
bound pM [5]: 9.98 pM
bound per free [5]: 0.0039
sites bound per cell (sites per cell) [5]: 501
specific cpm [5]: 398 cpm
% *SLPI BOUND [6]: 0%
bound *SLPI (pM) [7]: 207 pM
bound per free [7]: 0.478
sites bound per cell (sites per cell) [7]: 12500
specific cpm [7]: 2210 cpm
% *SLPI BOUND [8]: 27%
bound *SLPI (pM) [9]: 748 pM
bound per free [9]: 0.171
sites bound per cell (sites per cell) [9]: 45100
specific cpm [9]: 7990 cpm
bound pM [10]: 215 pM
bound per free [10]: 0.092
sites bound per cell (sites per cell) [10]: 12900
specific cpm [10]: 2300 cpm
% *SLPI BOUND [11]: 101%
% *SLPI BOUND [12]: 4%
% *SLPI BOUND [13]: 57%
% *SLPI BOUND [14]: 0%
